Assay results reported in US20190112393 (published 2019).
Residue numbers refer to the chain shown, from its start.

T1: human FcγRIIb (human, UniProt P31994)
T1 chain: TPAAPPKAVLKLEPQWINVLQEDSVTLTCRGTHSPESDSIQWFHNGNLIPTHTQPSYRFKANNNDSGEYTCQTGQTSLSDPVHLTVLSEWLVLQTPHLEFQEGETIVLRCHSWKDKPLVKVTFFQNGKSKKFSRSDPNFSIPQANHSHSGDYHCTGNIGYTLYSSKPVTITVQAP

T2: human FcγRIa (human, UniProt P12314)
T2 chain: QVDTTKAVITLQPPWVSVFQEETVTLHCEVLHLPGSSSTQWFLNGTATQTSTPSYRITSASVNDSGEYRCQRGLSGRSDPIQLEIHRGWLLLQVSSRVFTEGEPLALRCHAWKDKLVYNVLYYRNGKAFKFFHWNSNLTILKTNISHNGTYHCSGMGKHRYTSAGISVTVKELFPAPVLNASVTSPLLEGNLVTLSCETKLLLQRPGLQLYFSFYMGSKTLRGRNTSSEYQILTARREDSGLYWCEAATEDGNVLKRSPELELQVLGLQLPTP

B1: F1380 (antibody)
chain 1: QVQLQESGPGLVKPSETLSLTCAVSGHSISHDHAWSWVRQPPGEGLEWIGFISYSGITNYNPSLQGRVTISRDNSKNTLYLQMNSLRAEDTAVYYCARSLARTTAMDYWGEGTLVTVSSASTKGPSVFPLAPSSKSTSGGTAALGCLVKDYFPEPVTVSWNSGALTSGVHTFPAVLQSSGLYSLSSVVTVPSSSLGTQTYICNVNHKPSNTKVDKKVEPKSCDKTHTCPPCPAPELLGGPSVFLFPPKPKDTLMISRTPEVTCVVVDVSHEDPEVKFNWYVDGVEVHNAKTKPREEQYNSTYRVVSVLTVLHQDWLNGKEYKCKVSNKALPAPIEKTISKAKGQPREPQVYTLPPSRDELTKNQVSLTCLVKGFYPSDIAVEWESNGQPENNYKTTPPVLDSDGSFFLYSKLTVDKSRWQQGNVFSCDVLHEALHSHYTQKSLSLSP
chain 2: DIQMTQSPSSLSASVGDSVTITCQASTDISSHLNWYQQKPGKAPELLIYYGSHLLSGVPSRFSGSGSGTDFTFTISSLEAEDAATYYCGQGNRLPYTFGQGTKVEIERTVAAPSVFIFPPSDEQLKSGTASVVCLLNNFYPREAKVQWKVDNALQSGNSQESVTEQDSKDSTYSLSSTLTLSKADYEKHKVYACEVTHQGLSSPVTKSFNRGEC
B2: F1385 (antibody)
chain 1: B1 chain 1 with D428Q
chain 2: B1 chain 2
B3: F1392 (antibody)
chain 1: B1 chain 1 with D428S, Y438K
chain 2: B1 chain 2
B4: F1388 (antibody)
chain 1: B1 chain 1 with D428S, Y438F
chain 2: B1 chain 2
B5: BP547 (antibody)
chain 1: QVQLQESGPGLVKPSETLSLTCAVSGHSISHDHAWSWVRQPPGEGLEWIGFISYSGITNYNPSLQGRVTISRDNSKNTLYLQMNSLRAEDTAVYYCARSLARTTAMDYWGEGTLVTVSSASTKGPSVFPLAPSSKSTSGGTAALGCLVKDYFPEPVTVSWNSGALTSGVHTFPAVLQSSGLYSLSSVVTVPSSSLGTQTYICNVNHKPSNTKVDKKVEPKSCDKTHTCPPCPAPDLLGDDSVFLFPPKPKDTLMISRTPEVTCVVVDVSDEDGEVKFNWYVDGVEVHNAKTKPREEQDNSTYRVVSVLTVLHQDWLNGKEYKCKVSNKALPRPIEKTISKAKGQPREPQVYTLPPSRDELTKNQVSLTCLVKGFYPSDIAVEWESNGQPENNYKTTPPVLDSDGSFFLYSRLTVDKSRWQQGNVFSCSVMHEALHNHYTQESLSLSP
chain 2: not shown
B6: BP230 (antibody)
chain 1: B5 chain 1 with R411K
chain 2: not shown
B7: BP544 (antibody)
chain 1: B5 chain 1 with R357Q, R411K
chain 2: not shown
B8: BP548 (antibody)
chain 1: B5 chain 1 with R411K, Q421E
chain 2: not shown
B9: BP545 (antibody)
chain 1: B5 chain 1 with D358E, R411K
chain 2: not shown
B10: BP542 (antibody)
chain 1: B5 chain 1 with D298F, R411K
chain 2: not shown
B11: BP543 (antibody)
chain 1: B5 chain 1 with D270Q, R411K
chain 2: not shown
B12: BP546 (antibody)
chain 1: B5 chain 1 with L360M, R411K
chain 2: not shown
B13: BP541 (antibody)
chain 1: B5 chain 1 with K276Q, R411K
chain 2: not shown
B14: BP426 (antibody)
chain 1: B5 chain 1 with S269A, D270E, E271D, D298Y, R411K
chain 2: not shown
B15: BP435 (antibody)
chain 1: B5 chain 1 with K328A, I334T, R411K
chain 2: not shown
B16: BP262 (antibody)
chain 1: B5 chain 1 with D235E, D270E, D298Y, R332A, R411K
chain 2: not shown
B17: BP264 (antibody)
chain 1: B5 chain 1 with D270E, R411K
chain 2: not shown
B18: BP268 (antibody)
chain 1: B5 chain 1 with D270E, R332A, R411K
chain 2: not shown
B19: BP151 (antibody)
chain 1: B5 chain 1 with L236Y, D270H, G273P, D298Y, K328A, R411K
chain 2: not shown
B20: BP130 (antibody)
chain 1: B5 chain 1 with D239G, D270H, G273P, D298Y, V325M, R332K, R411K
chain 2: not shown
B21: BP243 (antibody)
chain 1: B5 chain 1 with L236Y, D298Y, R411K
chain 2: not shown
B22: BP233 (antibody)
chain 1: B5 chain 1 with D235E, L236Y, D270H, D298Y, R332K, R411K
chain 2: not shown
B23: BP220 (antibody)
chain 1: B5 chain 1 with R332K, R411K
chain 2: not shown
B24: BP249 (antibody)
chain 1: B5 chain 1 with L236Y, R411K
chain 2: not shown
B25: BP246 (antibody)
chain 1: B5 chain 1 with S269Q, K328A, R411K
chain 2: not shown
B26: Fv4-IgG1 (antibody)
chain 1: not shown
chain 2: B1 chain 2
B27: F1172 (antibody)
chain 1: B1 chain 1 with D428S, L430M, S436H, Q440R, S442E
chain 2: B1 chain 2
B28: F1166 (antibody)
chain 1: B1 chain 1 with M254Y, S256T, T258E, D428S, L430M, S436N, Q440R, S442E
chain 2: B1 chain 2
B29: F1171 (antibody)
chain 1: B1 chain 1 with S426N, D428S
chain 2: B1 chain 2
B30: Fv4-YTE (antibody)
chain 1: B1 chain 1 with M254Y, S256T, T258E, D428S, L430M, S436N
chain 2: B1 chain 2
B31: F1170 (antibody)
chain 1: B1 chain 1 with D428S, Q440R, S442E
chain 2: B1 chain 2
B32: F1167 (antibody)
chain 1: B1 chain 1 with M254Y, S256T, T258E, S426N, D428S, L430M, S436N
chain 2: B1 chain 2

molecular target: human FcRn (human); experiment: SPR, pH 6.0

Row | Kd [nM] | Binder
1 | 73 | B1
2 | 77 | B2
3 | 270 | B3
4 | 80 | B4

Molecular target: T1, human FcγRIIb
Experiment: SPR

Row | Kd [nM] | Binder
5 | 19 | B5
6 | 18 | B6
7 | 17 | B7
8 | 19 | B8
9 | 17 | B9
10 | 20 | B10
11 | 20 | B11
12 | 15 | B12
13 | 16 | B13

Molecular target: T2, human FcγRIa
Experiment: SPR

Row | Kd [nM] | Binder
14 | 1 | B14
15 | 1 | B15
16 | 10 | B16
17 | 7.4 | B17
18 | 4.5 | B18

Molecular target: T1, human FcγRIIb
Experiment: SPR
Remark: another data set of the same source

Row | Kd [nM] | Binder
19 | 40 | B19
20 | 300 | B20

Molecular target: T2, human FcγRIa
Experiment: SPR
Remark: another data set of the same source

Row | Kd [nM] | Binder
21 | 12 | B5
22 | 10 | B6
23 | 9.8 | B7
24 | 12 | B8
25 | 23 | B11
26 | 9 | B12
27 | 11 | B13

Molecular target: T2, human FcγRIa
Experiment: SPR
Remark: another data set of the same source

Row | Kd [nM] | Binder
28 | 3 | B21
29 | 70 | B22
30 | 20 | B23
31 | 7 | B24
32 | 8 | B25

Molecular target: T1, human FcγRIIb
Experiment: SPR
Remark: another data set of the same source

Row | Kd [nM] | Binder
33 | 120 | B16
34 | 92 | B18

molecular target: human FcRn (human); experiment: SPR, pH 6.0; remark: another data set of the same source

Row | Kd [nM] | Binder
35 | 2400 | B26
36 | 400 | B27
37 | 210 | B28
38 | 240 | B29
39 | 210 | B30
40 | 150 | B31
41 | 250 | B32
